T1: IRP1 (iron regulatory protein 1) (rabbit, UniProt Q01059 1-889)
T1 sequence: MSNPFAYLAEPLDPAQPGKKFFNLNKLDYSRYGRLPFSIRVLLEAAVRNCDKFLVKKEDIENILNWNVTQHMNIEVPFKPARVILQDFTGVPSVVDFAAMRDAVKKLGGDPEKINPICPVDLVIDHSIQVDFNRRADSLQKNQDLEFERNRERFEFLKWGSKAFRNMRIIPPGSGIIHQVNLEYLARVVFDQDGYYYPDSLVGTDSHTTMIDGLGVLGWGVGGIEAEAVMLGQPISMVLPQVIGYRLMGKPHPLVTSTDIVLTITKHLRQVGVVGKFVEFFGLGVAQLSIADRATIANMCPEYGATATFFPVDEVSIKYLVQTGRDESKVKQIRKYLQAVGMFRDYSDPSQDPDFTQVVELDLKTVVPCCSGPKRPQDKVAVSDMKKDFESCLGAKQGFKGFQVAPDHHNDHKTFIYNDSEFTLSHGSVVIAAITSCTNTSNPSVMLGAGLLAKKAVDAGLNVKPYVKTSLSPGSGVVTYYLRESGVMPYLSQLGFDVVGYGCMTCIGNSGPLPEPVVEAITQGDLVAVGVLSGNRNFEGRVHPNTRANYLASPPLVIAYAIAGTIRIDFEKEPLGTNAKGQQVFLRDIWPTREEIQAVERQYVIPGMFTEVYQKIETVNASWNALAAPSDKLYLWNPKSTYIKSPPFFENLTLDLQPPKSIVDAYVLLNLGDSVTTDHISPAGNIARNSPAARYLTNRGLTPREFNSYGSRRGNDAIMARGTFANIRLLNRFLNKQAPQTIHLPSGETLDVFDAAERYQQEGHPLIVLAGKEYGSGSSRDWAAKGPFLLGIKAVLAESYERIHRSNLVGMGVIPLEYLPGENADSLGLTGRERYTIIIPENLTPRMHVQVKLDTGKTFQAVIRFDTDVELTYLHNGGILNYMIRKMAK


Key:
Conditions in all cases: protein: recombinant; label: 5' fluorescein; hairpin
[1] = target: T1, IRP1 (iron regulatory protein 1); test: fluorescence anisotropy; 20 °C, no Mn2+; 40 mM HEPES pH 7.2, 100 mM KCl, 5-30 °C, ±50 µM Mn2+; labeled RNA 50 nM or 100 nM (Methods)
[2] = target: T1, IRP1 (iron regulatory protein 1); test: fluorescence anisotropy; 30 °C, no Mn2+; 40 mM HEPES pH 7.2, 100 mM KCl, 5-30 °C, ±50 µM Mn2+; labeled RNA 50 nM or 100 nM (Methods)
[3] = target: T1, IRP1 (iron regulatory protein 1); test: fluorescence anisotropy; 5 °C, no Mn2+; 40 mM HEPES pH 7.2, 100 mM KCl, 5-30 °C, ±50 µM Mn2+; labeled RNA 50 nM or 100 nM (Methods)
[4] = target: T1, IRP1 (iron regulatory protein 1); test: fluorescence anisotropy; 25 °C, no Mn2+; 40 mM HEPES pH 7.2, 100 mM KCl, 5-30 °C, ±50 µM Mn2+; labeled RNA 50 nM or 100 nM (Methods)
[5] = target: T1, IRP1 (iron regulatory protein 1); test: fluorescence anisotropy; 15 °C, no Mn2+; 40 mM HEPES pH 7.2, 100 mM KCl, 5-30 °C, ±50 µM Mn2+; labeled RNA 50 nM or 100 nM (Methods)
[6] = target: T1, IRP1 (iron regulatory protein 1); test: fluorescence anisotropy; 10 °C, no Mn2+; 40 mM HEPES pH 7.2, 100 mM KCl, 5-30 °C, ±50 µM Mn2+; labeled RNA 50 nM or 100 nM (Methods)

Row | Binder | Kd [1] | Kd [2] | Kd [3] | Kd [4] | Kd [5] | Kd [6]
1 | CCUCAUCUUUGUCAGUGCACAAAAUGGCG (structured_RNA) [ACO2 IRE-RNA (mitochondrial aconitase IRE)] | 101 ± 7 nM | 155 ± 4 nM | 55.9 ± 3 nM | 129 ± 3.3 nM | 89 ± 3 nM | 69.6 ± 5 nM
2 | GUUCUUGCUUCAACAGUGUUUGAACGGAAC (structured_RNA) [FRT IRE-RNA (ferritin IRE)] | 11.7 ± 0.4 nM | 19.2 ± 0.4 nM | 4.6 ± 0.2 nM | 14.2 ± 0.3 nM | 8.6 ± 0.3 nM | 7 ± 0.2 nM

Reference: publication PMC5561112, “Thermodynamic and Kinetic Analyses of Iron Response Element (IRE)-mRNA Binding to Iron Regulatory Protein, IRP1”
